Key:
Experiment in all cases: co-IP
[1] = molecular target: FLAG XIAP (X-linked mammalian inhibitor of apoptosis protein), wild-type, full length (UniProt P98170 1-497)
[2] = molecular target: FLAG XIAP T143A E314S (UniProt P98170 1-497, T143A | E314S)
[3] = molecular target: FLAG XIAP V146A E314S (UniProt P98170 1-497, V146A | E314S)
[4] = molecular target: FLAG XIAP D148A E314S (UniProt P98170 1-497, D148A | E314S)
[5] = molecular target: FLAG XIAP D148A W310A E314S (UniProt P98170 1-497, D148A | W310A | E314S)
FLAG XIAP D148A W310A E314S, sequence (P98170 whole entry D148A/W310A/E314S): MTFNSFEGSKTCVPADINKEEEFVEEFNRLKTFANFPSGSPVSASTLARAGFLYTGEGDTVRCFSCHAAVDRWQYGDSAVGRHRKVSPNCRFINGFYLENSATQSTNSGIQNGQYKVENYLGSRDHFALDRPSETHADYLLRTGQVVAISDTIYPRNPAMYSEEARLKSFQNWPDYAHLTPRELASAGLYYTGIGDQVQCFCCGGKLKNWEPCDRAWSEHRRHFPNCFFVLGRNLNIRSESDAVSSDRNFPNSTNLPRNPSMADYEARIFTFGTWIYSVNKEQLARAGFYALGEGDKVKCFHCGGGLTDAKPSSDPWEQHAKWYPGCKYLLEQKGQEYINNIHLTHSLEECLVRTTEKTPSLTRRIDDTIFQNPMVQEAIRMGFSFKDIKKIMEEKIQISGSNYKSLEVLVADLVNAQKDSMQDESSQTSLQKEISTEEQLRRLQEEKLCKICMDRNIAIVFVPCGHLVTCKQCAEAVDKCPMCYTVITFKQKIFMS

[6] = molecular target: FLAG XIAP D148A D214S H343A (UniProt P98170 1-497, D148A | D214S | H343A)
FLAG XIAP D148A D214S H343A, sequence (P98170 whole entry D148A/D214S/H343A): as the sequence (P98170 whole entry D148A/W310A/E314S) above, with D214S, A310W, S314E, H343A counted along it

[7] = molecular target: FLAG XIAP D148A G306S (UniProt P98170 1-497, D148A | G306S)
FLAG XIAP D148A G306S, sequence (P98170 whole entry D148A/G306S): as the sequence (P98170 whole entry D148A/W310A/E314S) above, with G306S, A310W, S314E counted along it

[8] = molecular target: FLAG XIAP N259D (UniProt P98170 1-497, N259D)
FLAG XIAP N259D, sequence (P98170 whole entry N259D): as the sequence (P98170 whole entry D148A/W310A/E314S) above, with A148D, N259D, A310W, S314E counted along it

[9] = molecular target: FLAG XIAP H343A (UniProt P98170 1-497, H343A)
FLAG XIAP H343A, sequence (P98170 whole entry H343A): as the sequence (P98170 whole entry D148A/W310A/E314S) above, with A148D, A310W, S314E, H343A counted along it

[10] = molecular target: FLAG XIAP D214S (UniProt P98170 1-497, D214S)
FLAG XIAP D214S, sequence (P98170 whole entry D214S): as the sequence (P98170 whole entry D148A/W310A/E314S) above, with A148D, D214S, A310W, S314E counted along it

[11] = molecular target: FLAG XIAP D214S N259D (UniProt P98170 1-497, D214S | N259D)
FLAG XIAP D214S N259D, sequence (P98170 whole entry D214S/N259D): as the sequence (P98170 whole entry D148A/W310A/E314S) above, with A148D, D214S, N259D, A310W, S314E counted along it

[12] = molecular target: FLAG XIAP E314S (UniProt P98170 1-497, E314S)
FLAG XIAP E314S, sequence (P98170 whole entry E314S): as the sequence (P98170 whole entry D148A/W310A/E314S) above, with A148D, A310W counted along it

[13] = molecular target: FLAG XIAP N259D E314S (UniProt P98170 1-497, N259D | E314S)
FLAG XIAP N259D E314S, sequence (P98170 whole entry N259D/E314S): as the sequence (P98170 whole entry D148A/W310A/E314S) above, with A148D, N259D, A310W counted along it

[14] = molecular target: FLAG XIAP W310A E314S (UniProt P98170 1-497, W310A | E314S)
FLAG XIAP W310A E314S, sequence (P98170 whole entry W310A/E314S): as the sequence (P98170 whole entry D148A/W310A/E314S) above, with A148D counted along it

[15] = molecular target: FLAG XIAP D214S H343A (UniProt P98170 1-497, D214S | H343A)
FLAG XIAP D214S H343A, sequence (P98170 whole entry D214S/H343A): as the sequence (P98170 whole entry D148A/W310A/E314S) above, with A148D, D214S, A310W, S314E, H343A counted along it

FLAG XIAP V146A E314S, sequence (P98170 whole entry V146A/E314S): as the sequence (P98170 whole entry D148A/W310A/E314S) above, with V146A, A148D, A310W counted along it
FLAG XIAP (X-linked mammalian inhibitor of apoptosis protein), wild-type, full length, sequence (P98170 whole entry): as the sequence (P98170 whole entry D148A/W310A/E314S) above, with A148D, A310W, S314E counted along it
FLAG XIAP D148A E314S, sequence (P98170 whole entry D148A/E314S): as the sequence (P98170 whole entry D148A/W310A/E314S) above, with A310W counted along it
FLAG XIAP T143A E314S, sequence (P98170 whole entry T143A/E314S): as the sequence (P98170 whole entry D148A/W310A/E314S) above, with T143A, A148D, A310W counted along it

B1: processed DIABLO (HA-tagged DIABLO) (natural protein)
chain: AVPIAQKSEPQSLSNEALMRRAVSLVTDSTSTFLSQTTYALIEAITEYTKAVYTLVSLYRQYTSLLGKMNSQEEDEVWQVIIGARVEMTSKQQEYLKLETTWMTAVGLSEMAAEAAYQTGADQASITARNHIQLVKSQVQEVRQLSQKAETKLAEAQTKELHQKAQEVSDEGADQEEEAYLRED
DIABLO binding relative to wild-type XIAP (arbitrary value, 10 = 100%) [1]: 10 arbitrary (10 = 100%) | DIABLO binding relative to wild-type XIAP (arbitrary value, 10 = 100%) [2]: 5 arbitrary (10 = 100%) | DIABLO binding relative to wild-type XIAP (arbitrary value, 10 = 100%) [3]: 5 arbitrary (10 = 100%) | DIABLO binding relative to wild-type XIAP (arbitrary value, 10 = 100%) [4]: 5 arbitrary (10 = 100%) | DIABLO binding relative to wild-type XIAP (arbitrary value, 10 = 100%) [5]: 4 arbitrary (10 = 100%) | DIABLO binding relative to wild-type XIAP (arbitrary value, 10 = 100%) [6]: 9 arbitrary (10 = 100%) | DIABLO binding relative to wild-type XIAP (arbitrary value, 10 = 100%) [7]: 8 arbitrary (10 = 100%) | DIABLO binding relative to wild-type XIAP (arbitrary value, 10 = 100%) [8]: 10 arbitrary (10 = 100%) | DIABLO binding relative to wild-type XIAP (arbitrary value, 10 = 100%) [9]: 10 arbitrary (10 = 100%) | DIABLO binding relative to wild-type XIAP (arbitrary value, 10 = 100%) [10]: 9 arbitrary (10 = 100%) | DIABLO binding relative to wild-type XIAP (arbitrary value, 10 = 100%) [11]: 9 arbitrary (10 = 100%) | DIABLO binding relative to wild-type XIAP (arbitrary value, 10 = 100%) [12]: 5 arbitrary (10 = 100%) | DIABLO binding relative to wild-type XIAP (arbitrary value, 10 = 100%) [13]: 5 arbitrary (10 = 100%) | DIABLO binding relative to wild-type XIAP (arbitrary value, 10 = 100%) [14]: 4 arbitrary (10 = 100%) | DIABLO binding relative to wild-type XIAP (arbitrary value, 10 = 100%) [15]: 8 arbitrary (10 = 100%)

— paper PMC2173256 (The Journal of Cell Biology, 2002)
